How the values were obtained:
pre-pro-insulin glargine [1] = system: pre-pro-insulin glargine
pre-pro-insulin glargine [2] = molecular target: pre-pro-insulin glargine; remark: listed apart in the source
[3] = molecular target: pre-pro-insulin glulisine
[4] = molecular target: pre-pro-insulin (human insulin)

Molecule	by-product formation in pre-pro-insulin processing (HPLC) (pre-pro-insulin glargine [1])	Insulin glargine [area %] (pre-pro-insulin glargine [2])	Yield (external standard) [%] (pre-pro-insulin glargine [2])	des-Thr [area %] (pre-pro-insulin glargine [2])	pre-Insulin glargine [area %] (pre-pro-insulin glargine [2])	Σ A0 compounds [area %] (pre-pro-insulin glargine [2])	A0-Arg-insulin glulisine [area %] [3] [area %]	Arg-insulin-glulisine [area %] [3] [area %]	Yield (external standard) [%] [3] [%]	Yield (external standard) [%] [4] [%]	des-Thr [area %] [4] [area %]	Σ A0 compounds [area %] [4] [area %]	Σ Arg-Ins [area %] [4] [area %]	Σ pre-Arg-Ins [area %] [4] [area %]
Serine190Alanine human trypsin variant	High amounts of by-products, mainly B30-des-Thr- and A0-components, are formed during reaction	–	–	–	–	–	–	–	–	–	–	–	–	–
Ser172Ala porcine trypsin (protein) IVGGYTCAANSIPYQVSLNSGSHFCGGSLINSQWVVSAAHCYKSRIQVRLGEHNIDVLEGNEQFINAAKIITHPNFNGNTLDNDIMLIKLSSPATLNSRVATVSLPRSCAAAGTECLISGWGNTKSSGSSYPSLLQCLKAPVLSDSSCKSSYPGQITGNMICVGFLEGGKDACQGDSGGPVVCNGQLQGIVSWGYGCAQKNKPGVYTKVCNYVNWIQQTIAAN	–	55.5	62.9	2.6	0.4	5.1	1.2	39.2	100	96.5	3.3	4.1	82.5	0.9
native, recombinant porcine trypsin (wildtype porcine pancreatic trypsin isoform I) (protein) IVGGYTCAANSIPYQVSLNSGSHFCGGSLINSQWVVSAAHCYKSRIQVRLGEHNIDVLEGNEQFINAAKIITHPNFNGNTLDNDIMLIKLSSPATLNSRVATVSLPRSCAAAGTECLISGWGNTKSSGSSYPSLLQCLKAPVLSDSSCKSSYPGQITGNMICVGFLEGGKDSCQGDSGGPVVCNGQLQGIVSWGYGCAQKNKPGVYTKVCNYVNWIQQTIAAN	–	51.1	58.1	5.6	0.5	10.9	4.7	35.8	91.6	84.2	7.2	10.7	68.8	1.4

— patent publication US20100196953
